Reference: patent publication US20230272086A1 (CHIA TAI TIANQING PHARMACEUTICAL GROUP, published 2023)
Where a chain is given by its changes, count along the chain named.

T1: human ST2 (hST2, Interleukin-1 receptor-like 1 isoform A) on cells (human, UniProt Q01638 19-556)
T1 construct: the same id is used for hST2 naturally expressed on KU812 cells and on human CD4+ T cells; also called HEK293T-hST2-NFκB-Luciferase; KU812-NFκB-Luciferase
T1 sequence: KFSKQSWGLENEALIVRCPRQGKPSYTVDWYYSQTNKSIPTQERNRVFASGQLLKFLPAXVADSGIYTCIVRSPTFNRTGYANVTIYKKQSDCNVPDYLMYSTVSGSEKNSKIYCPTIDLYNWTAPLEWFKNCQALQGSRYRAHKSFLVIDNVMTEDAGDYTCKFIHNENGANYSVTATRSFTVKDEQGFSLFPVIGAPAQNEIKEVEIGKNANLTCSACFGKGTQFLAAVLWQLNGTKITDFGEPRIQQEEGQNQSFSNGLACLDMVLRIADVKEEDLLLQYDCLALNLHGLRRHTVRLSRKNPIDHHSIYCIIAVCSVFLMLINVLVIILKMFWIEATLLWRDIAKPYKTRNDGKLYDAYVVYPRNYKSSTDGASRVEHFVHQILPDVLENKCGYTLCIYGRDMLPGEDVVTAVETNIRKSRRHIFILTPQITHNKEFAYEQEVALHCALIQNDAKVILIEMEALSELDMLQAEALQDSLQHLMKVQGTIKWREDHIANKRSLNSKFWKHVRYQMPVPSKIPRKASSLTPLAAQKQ

B1: RG6149 (antibody Ab2 in CN104334582, prepared in-house) (antibody, human IgG2, kappa, V domains shown)
VH: EVQLVQSGAEVKKPGESLKISCKGSGYSFTNYWIGWVRQMPGKGLEWMGIIYPGNSDTRFSPSFQGQVTISADKSITTAYLQWSSLKASDTAMYYCARHGTSSDYYGLDVWGQGTTVTVSS
VL: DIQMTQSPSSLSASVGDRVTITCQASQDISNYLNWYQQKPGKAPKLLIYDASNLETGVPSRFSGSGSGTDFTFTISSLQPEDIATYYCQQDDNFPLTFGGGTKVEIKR
notes: Control anti-ST2 antibody
B2: Chimeric 31C8 (antibody, human IgG2, kappa, V domains shown)
VH: QVQLQQSGPELVRPGASVTLSCKASGYIFIDSEMHWVKQTPVHGLEWIGAIDPETGDTVYNQKFKGKATLTADKSSSTASMELSSLTSEDSAVYYCTGSTTDYYFAYWGQGTTLTVSS
VL: DIVMTQAAFSNPVTLGTSASISCRSSKSLLHSNGIIYLYWYLQKPGQSPQLLIYQMSNLASGVPDRFSSSGSGTDFTLRISRVEAEDVGVYYCAQNLELPFTFGSGTKLEIKR
notes: also called xi31C8
B3: GSK3772847 (antibody STLM208 in CN104411333, prepared in-house) (antibody, human IgG2, kappa, V domains shown)
VH: EVQLLESGGGLVQPGGSLRLSCAASGFTFSIYDMIWVRQAPGKGLEWVSSIRGEGGGTYYADSVKGRFTISRDNSKNTLYLQMNSLRAEDTAVYYCARDPWSTEGSFFVLDYWGQGTLVTVSS
VL: EIVLTQSPATLSLSPGERATLSCRASQSVDDDLAWYQQKPGQAPRLLIYDASNRATGIPARFSGSGSGTDFTLTISSLEPEDFAVYYCQQYITAPLTFGQGTKVEIKR
notes: Control anti-ST2 antibody
B4: Humanized 31C8-1.1 (antibody, human IgG2, kappa, V domains shown)
VH: EVQLVQSGAEVKKPGATVKISCKASGYIFIDSEMHWVQQAPGKGLEWMGAIDPETGDTVYAEKFQGRVTITADKSSSTAYMELSSLRSEDTAVYYCTGSTTDYYFAYWGQGTLVTVSS
VL: DIQMTQSPSSLSASVGDRVTITCRSSKSLLHSNGIIYLYWYQQKPGKAPKLLIYQLSNLASGVPSRFSSSGSGTDFTLTISSLQPEDFATYYCAQNLELPFTFGQGTKVEIKR
notes: also called hz31C8-1.1; hz31C81-1.1
B5: Humanized 31C8-1.2 (antibody, human IgG2, kappa, V domains shown)
VH: B4 VH with E1Q, E10K, E62K, Q65K
VL: B4 VL
notes: also called hz31C8-1.2; hz31C81-1.2

target: recombinant protein containing hST2 extracellular domain with human antibody heavy chain Fc tag (hST2-ECD-hFc) (human); assay: competition ELISA, coated hST2-ECD-hFc, antibody then biotin-labeled hIL33 Avitag (competitor)
Method: Whether the anti-ST2 antibodies were able to block the binding of hIL33 to hST2 was determined based on ELISA. A high-adsorption 96-well plate was coated with 2 µg/mL hST2-ECD-hFc at 100 µL/well and incubated overnight at 4° C. After the antigen not adsorbed was well washed off, the non-specific binding sites were blocked with a blocking buffer (PBST containing 1% bovine serum albumin). After the plate was washed three times with a washing buffer (PBST, PBS containing 0.05% (v/v) Tween 20), the anti-ST2 antibodies (serially diluted 2-fold from an initial concentration of 66.67 nM to 8 concentrations) were added at 100 µL/well, and the plate was incubated at 37° C. for 1 h After the plate was washed 3 times with the washing buffer, 100 µL of biotin-labeled hIL33 Avitag (with a concentration of 0.1 µg/mL) was added to each well, and the plate was incubated at 37° C. for 1 h. After the plate was washed 3 times with the washing buffer, a 1:1000 diluted secondary antibody Avidin HRP (Jackson immunoresearch, 016-030-084) was added at 100 µL/well, and the plate was incubated at room temperature for 1 h After the plate was washed with the washing buffer, the substrate TMB solution (Thermo, 00-4201-56) was added at 100 µL/well, and the plate was incubated at room temperature for 3 min. 50 µL of a stop solution (2 N H₂SO₄) was added to terminate the reactions. Colorimetric signals were generated and read at 450 nm using a plate reader (PE, Envision). The data were analyzed using GraphPad Prism5, and the IC₅₀ values were calculated.
The humanized antibodies hz31C81-1.1 (the amino acid sequence of the heavy chain set forth in SEQ ID NO: 75 and the amino acid sequence of the light chain set forth in SEQ ID NO: 81) and hz31C8-1.2 (the amino acid sequence of the heavy chain set forth in SEQ ID NO: 77 and the amino acid sequence of the light chain set forth in SEQ ID NO: 81) were subjected to affinity, binding, blocking and cell function analyses using the methods described in Example 4, Example 5, Example 6, Example 7, Example 8, Example 9 and Example 10.

IC50 [nM]	Binder
2.15	B1
1.93	B2
2.53	B3
1.89	B4
2.24	B5

target: T1, human ST2 (hST2, Interleukin-1 …); assay: flow cytometry on HEK293T-hST2-NFκB-Luciferase cells
Method: 3 × 10⁵ HEK293T-hST2-NFκB-Luciferase or HEK293T-Cyno-ST2-NFκB-Luciferase cells were added to a 96-well culture plate. Serially diluted anti-ST2 antibodies (serially diluted 4-fold from an initial concentration of 667 nM to 8 concentrations in binding assays with the HEK293T-hST2-NFκB-Luciferase cells; serially diluted 4-fold from an initial concentration of 400 nM to 8 concentrations in binding assays with the HEK293T-Cyno-ST2-NFκB-Luciferase cells) were added to the cell suspensions. After the plate was incubated at room temperature for 60 min, the cells were washed 3 times with PBS. […] The cells were washed 3 times with PBS and resuspended in 100 µ1L of PBS, and then the fluorescence signals were analyzed and detected using a flow cytometer (BD, Accuri C6). The binding capacity of the anti-ST2 antibodies to hST2 and cyno-ST2 on the cell line surfaces was measured in terms of the mean fluorescence intensity (MFI) of staining. The data were analyzed using GraphPad Prism5, and the EC₅₀ values were calculated. The EC₅₀ values for the binding of the anti-ST2 chimeric antibodies to hST2 and Cyno-ST2 at the cellular level are shown in Table 8 and FIGS. 7-8.
The humanized antibodies hz31C81-1.1 (the amino acid sequence of the heavy chain set forth in SEQ ID NO: 75 and the amino acid sequence of the light chain set forth in SEQ ID NO: 81) and hz31C8-1.2 (the amino acid sequence of the heavy chain set forth in SEQ ID NO: 77 and the amino acid sequence of the light chain set forth in SEQ ID NO: 81) were subjected to affinity, binding, blocking and cell function analyses using the methods described in Example 4, Example 5, Example 6, Example 7, Example 8, Example 9 and Example 10. In the present disclosure, “hz” and “xi” denote humanized antibodies and chimeric antibodies, respectively; for example, “hz31C81-1.1” and “hz31C81-1.2” represent humanized 31C81-1.1 and 31C81-1.2 antibodies, and “xi31C8” represents a chimeric 31C8 antibody.

EC50 [nM]	Binder
0.581	B1
0.405	B2
0.676	B3
0.384	B4
0.468	B5
